Tested on: Escherichia coli TOP10
Assay: shrunken log2 fold change of peptide-encoding DNA abundance (4.5 h post-induction vs induction); higher = less antimicrobial activity (less host growth inhibition)
Details: time post-induction: 4.5 h; library: site-saturation at positions 5, 18, 19, 20
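Further: peptides expressed intracellularly from a pBAD plasmid library in pooled LB shake-flask culture, induced with 0.3% L-arabinose, DNA abundance read by NGS, three biological replicates, DESeq2 with apeglm shrinkage.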

Sequence	shrunken log2 fold change
RRIRQRPPRLPRPRPRPGYNPRP	-0.185
RRIRARPPRLPRPRPRPFFRPRP	0.126
RRIRNRPPRLPRPRPRPENYPRP	-0.553
RRIRPRPPRLPRPRPRPVGIPRP	0.0618
RRIRGRPPRLPRPRPRPATGPRP	0.308
RRIRERPPRLPRPRPRPMVPPRP	-0.103
RRIRARPPRLPRPRPRPRQDPRP	0.34
RRIRHRPPRLPRPRPRPTMAPRP	-0.0607
RRIRERPPRLPRPRPRPQIYPRP	-0.23
RRIRARPPRLPRPRPRPNLHPRP	0.0181
RRIRDRPPRLPRPRPRPHKAPRP	-0.0142
RRIRRRPPRLPRPRPRPRAYPRP	-0.0105
RRIRMRPPRLPRPRPRPLMCPRP	-0.249
RRIRRRPPRLPRPRPRPVTRPRP	0.169
RRIRERPPRLPRPRPRPYYMPRP	-0.785
RRIRKRPPRLPRPRPRPGYKPRP	0.236
RRIRMRPPRLPRPRPRPPDMPRP	1.06
RRIRRRPPRLPRPRPRPEYVPRP	0.0703
RRIRGRPPRLPRPRPRPHFDPRP	0.469
RRIRNRPPRLPRPRPRPWALPRP	-0.0675

Sequence	shrunken log2 fold change
RRIRMRPPRLPRPRPRPVMDPRP	0.025
RRIRMRPPRLPRPRPRPGFSPRP	0.331
RRIRHRPPRLPRPRPRPVGNPRP	0.0182
RRIRDRPPRLPRPRPRPSPQPRP	0.204
RRIRYRPPRLPRPRPRPWHAPRP	-0.25
RRIRQRPPRLPRPRPRPMCDPRP	0.00628
RRIRMRPPRLPRPRPRPWEMPRP	-0.0802
RRIRWRPPRLPRPRPRPSRAPRP	0.397
RRIRWRPPRLPRPRPRPFEHPRP	-0.113
RRIRRRPPRLPRPRPRPCPAPRP	0.392
RRIRCRPPRLPRPRPRPIVMPRP	-0.235
RRIRERPPRLPRPRPRPRECPRP	-0.018
RRIRPRPPRLPRPRPRPDDYPRP	0.0238
RRIRHRPPRLPRPRPRPDPCPRP	-0.186
RRIRTRPPRLPRPRPRPWLIPRP	0.00287
RRIRWRPPRLPRPRPRPQAQPRP	0.00496
RRIRYRPPRLPRPRPRPYVSPRP	-0.0075
RRIRVRPPRLPRPRPRPDVVPRP	-0.36
RRIRGRPPRLPRPRPRPYYYPRP	-0.824
RRIRLRPPRLPRPRPRPTDQPRP	0.0347

Sequence	shrunken log2 fold change
RRIRTRPPRLPRPRPRPYPFPRP	-0.0603
RRIRCRPPRLPRPRPRPQLCPRP	0.192
RRIRPRPPRLPRPRPRPRSVPRP	0.0746
RRIRDRPPRLPRPRPRPRSQPRP	0.137
RRIRYRPPRLPRPRPRPFPSPRP	-0.0392
RRIRMRPPRLPRPRPRPRKPPRP	0.915
RRIRTRPPRLPRPRPRPVNNPRP	-0.0819
RRIRGRPPRLPRPRPRPQVCPRP	2.63e-05
RRIRGRPPRLPRPRPRPDSHPRP	0.0299
RRIRGRPPRLPRPRPRPTKDPRP	0.7
RRIRVRPPRLPRPRPRPFCTPRP	-0.389
RRIRKRPPRLPRPRPRPEMCPRP	1.1
RRIRCRPPRLPRPRPRPYFIPRP	-1.18
RRIRVRPPRLPRPRPRPQDAPRP	-0.443
RRIRFRPPRLPRPRPRPKKAPRP	0.173
RRIRTRPPRLPRPRPRPLKVPRP	-0.221
RRIRCRPPRLPRPRPRPPPFPRP	2.05
RRIRSRPPRLPRPRPRPFHVPRP	-0.108
RRIRPRPPRLPRPRPRPRCGPRP	0.282
RRIRKRPPRLPRPRPRPFYIPRP	-0.44
